Measured values published in PMC8752837 (2022).

T1: GST-BAK (human)
T1 chain: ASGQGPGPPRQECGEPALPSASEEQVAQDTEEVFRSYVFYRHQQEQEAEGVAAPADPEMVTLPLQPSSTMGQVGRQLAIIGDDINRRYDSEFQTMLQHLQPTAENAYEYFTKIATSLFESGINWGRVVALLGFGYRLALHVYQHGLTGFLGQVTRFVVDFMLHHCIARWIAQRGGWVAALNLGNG

T2: tevBAK (residues 22–186) (human, UniProt Q16611 22-186)
T2 chain: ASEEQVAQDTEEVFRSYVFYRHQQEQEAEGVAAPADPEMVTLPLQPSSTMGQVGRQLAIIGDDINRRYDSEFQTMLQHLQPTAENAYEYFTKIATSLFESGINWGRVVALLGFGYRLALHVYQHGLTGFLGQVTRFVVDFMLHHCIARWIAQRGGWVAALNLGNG


Legend:
[1] = biological target: T1, GST-BAK; test: FP
[2] = biological target: T2, tevBAK (residues 22–186); test: ITC

Binder | IC50 [1] [µM] | Kd [2] [µM]
Ac-EDIIRNIARHLAQVGDSFDRSI-NH2 [F(4) BID BH3 peptide] | 11.9 | 
Ac-EDIIRNIARHLAQVGDSYDRSI-NH2 [Y(4) BID BH3 peptide] | 6.9 | 
Ac-EDIIRNIARHLAQYGDSMDRSI-NH2 [Y(3) BID BH3 peptide] | 6.2 | 
Ac-EDIIRNIARHLAQWGDSMDRSI-NH2 [W(3) BID BH3 peptide] | 6.6 | 
Ac-EDIIRNIARHLAQFGDSMDRSI-NH2 [F(3) BID BH3 peptide] | 11.3 | 
Ac-EDIIRNIARHLAQWGDSMDRSW-NH2 [W(3)W(5) BID BH3 peptide] |  | 0.25
Ac-EDIIRNIARHLAQMGDSMDRSI-NH2 [M(3) BID BH3 peptide] | 4.6 | 
Ac-EDIIRNIARHLAQVGDSWDRSI-NH2 [W(4) BID BH3 peptide] | 11.5 | 
Ac-EDIIRNIARHLAQVGDSMDRSI-NH2 [WT BID BH3 peptide] | 12.2 | 22.7
Ac-EDIWRNIARHLAQVGDSMDRSI-NH2 [W(0) BID BH3 peptide] | 10.8 | 
Ac-EDIIRNIARHLAQVGDSMDRSW-NH2 [W(5) BID BH3 peptide] | 8.8 | 
